In patent US20050170334A1 one finds ELISA (OD450) and EC50 data, which are given here for two molecules.

One assay has as its target NM17 (influenza A virus). Briefly: ELISA, peptide coated, antibody 10 µg/ml. Background: In an ELISA, binding on a coated surface is turned into a signal by an enzyme label.
A further assay deals with NM16 (influenza A virus). The assay is described as follows: ELISA, peptide coated, antibody 10 µg/ml.
A further assay concerns the target CM16 (influenza A virus). Briefly: ELISA, peptide coated, antibody 10 µg/ml.
In another assay the target is CM12 (influenza A virus). The assay is described as follows: ELISA, peptide coated, antibody 10 µg/ml.
The target in the next assay is NM13 (influenza A virus). Briefly: ELISA, peptide coated, antibody 10 µg/ml.
In assay [1] the target is M2 peptide (extracellular 23-amino-acid M2 peptide) (influenza A virus). The assay is described as follows: ELISA, peptide coated, antibody 10 µg/ml.
The target of a further assay is NM11 (influenza A virus). The assay is described as follows: ELISA, peptide coated, antibody 10 µg/ml.
The target in a further assay is CM13 (influenza A virus). Briefly: ELISA, peptide coated, antibody 10 µg/ml.
A further assay has as its target CM14 (influenza A virus). Briefly: ELISA, peptide coated, antibody 10 µg/ml.
In a further assay the target is CM15 (influenza A virus). The assay is described as follows: ELISA, peptide coated, antibody 10 µg/ml.
A further assay addresses NM12 (influenza A virus). The assay is described as follows: ELISA, peptide coated, antibody 10 µg/ml.
For a further assay, the target named is CM17 (influenza A virus). The assay is described as follows: ELISA, peptide coated, antibody 10 µg/ml.
For assay [2], the target named is M2 expressed on A/HK/8/68 infected MDCK cells (influenza A virus A/HK/8/68). The assay is described as follows: cell-based ELISA, infected MDCK cells.
The target of another assay is NM14 (influenza A virus). The assay is described as follows: ELISA, peptide coated, antibody 10 µg/ml.
In a further assay the target is M12 (influenza A virus). Briefly: ELISA, peptide coated, antibody 10 µg/ml.

One may read the EC50 as the concentration that produces a half-maximal response. Low readings indicate an effect from little substance, high ones a need for much substance.

B1: L66 (antibody, V domains shown)
VH: EVQLVESGGGVVRPGGSLRLSCAASGFTFDDYGMSWVRQAPGKGLEWVSGINWNGGSTGYADSVKGRFTISRDNAKNSLYLQMNSLRAEDTALYYCARDRVTMVRGVIMDYYGMDVWGQGTTVTVSS
VL: QTVVTQEPSLTVSPRGTVTLTCSSSTGAVTSGYYPGWFQLKPGQAPMSLIYSARKKHSWTPARFSGSLLGGKAALTLSGVQPEDEAEYYCLLYYGGAYVFGTGTKVTVLG
As for B1, the ELISA (OD450) with NM17 (influenza A virus) amounted to 0.99 OD450; in the assay with NM16 (influenza A virus), 1.04 OD450; in the assay with CM16 (influenza A virus), 0.09 OD450; with CM12 (influenza A virus), 0.08 OD450; with NM13 (influenza A virus), 0.13 OD450; in assay [1], 0.51 OD450. In addition, the ELISA (OD450) in the assay with NM11 (influenza A virus) was 0.09 OD450; in the assay with CM13 (influenza A virus), 0.08 OD450; in the assay with CM14 (influenza A virus), 0.08 OD450; in the assay with CM15 (influenza A virus) it was 0.09 OD450; with NM12 (influenza A virus) it was 0.12 OD450; with CM17 (influenza A virus) it was 0.12 OD450. In addition, the EC50 in [2] was 0.229 µg/mL.

B2: C40G1 (antibody, V domains shown)
VH: QLQLQESGPGLVKPSETLSLTCTVSGGSISSSFYYCGWIRQPPGKGLEWIGSIYYRGSTYYNPSLKSRVTISVDTSKNQFSLKLSSVTAADTAVYYCARRVTMVRGVKGDYFDYWGQGTLVTVSS
VL: DIQMTQSPSSLSASVGDRVTITCRASQGISSWLAWYQQKPEKVPKSLIYAASSLQSGVPSRFSGSGSGTDFTLTISSLQPEDFATYYCQQYNYYPLTFGGGTKVEIKR
In the case of B2, the ELISA (OD450) in the assay with NM14 (influenza A virus) is 2.49 OD450; in the assay with CM16 (influenza A virus) it was 0.76 OD450; in the assay with CM12 (influenza A virus) it was 0.1 OD450; in the assay with NM13 (influenza A virus), 2.41 OD450; with CM13 (influenza A virus), 0.11 OD450; with M12 (influenza A virus), 2.71 OD450. Also, the ELISA (OD450) in the assay with CM14 (influenza A virus) was 0.1 OD450; in the assay with CM15 (influenza A virus), 0.11 OD450; with NM12 (influenza A virus) it was 0.12 OD450; in the assay with CM17 (influenza A virus), 2.78 OD450.
